Patent publication US20230322953A1 (HARBOUR BIOMED SHANGHAI, published 2023)

What was measured:
[1] = molecular target: T1, cynomolgus monkey CD3 (TCR/CD3 complex) on cynomolgus monkey T cells (cynomolgus monkey); test: flow cytometry (FACS) on cynomolgus monkey T cells
T1 construct: whole, on cells

[2] = molecular target: T2, biotinylated human BCMA-Fc, Avitag recombinant protein (ACRO Biosystems, #BC7-H82F0) (human, UniProt Q02223 1-54, biotinylated (Avitag)); test: BLI (Octet Red96e), biotinylated BCMA-Fc on SA sensor, 1:1 global fitting;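 further: Anti-BCMA antibodies analysed as binding partners of the captured BCMA antigen, with reference signals removed by double referencing before kinetic fitting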
T2 construct: extracellular domain; Bought protein; also called huBCMA.Fc; recombinant human BCMA-ECD-Fc
T2 sequence (looked up): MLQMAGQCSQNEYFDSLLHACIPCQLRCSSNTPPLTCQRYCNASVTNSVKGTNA

[3] = molecular target: T3, human BCMA on NCI-H929 cells (ATCC, CRL-9068) (human, UniProt Q02223 1-184); test: cell-based or functional assay
T3 sequence (looked up): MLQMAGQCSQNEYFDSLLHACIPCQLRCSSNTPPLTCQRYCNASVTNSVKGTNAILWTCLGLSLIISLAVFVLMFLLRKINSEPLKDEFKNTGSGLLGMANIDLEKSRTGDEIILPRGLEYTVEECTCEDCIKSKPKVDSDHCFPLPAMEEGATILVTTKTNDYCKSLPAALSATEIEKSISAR

[4] = molecular target: T4, cynomolgus monkey BCMA (ACRO Biosystems, #BCA-C82F4) (cynomolgus monkey, UniProt A0A2K5UD97 1-53); test: BLI; KD for cynomolgus monkey BCMA divided by KD for human BCMA
T4 construct: Bought protein; also called cyBCMA.Fc
T4 sequence (A0A2K5UD97 entry or part of it): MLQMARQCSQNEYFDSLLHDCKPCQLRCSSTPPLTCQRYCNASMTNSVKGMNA

[5] = molecular target: T3, human BCMA on NCI-H929 cells (ATCC, …); test: cell-based or functional assay; remark: listed apart in the source
[6] = molecular target: T5, human CD3 (TCR/CD3 complex) on human T cells (human, UniProt P07766 23-207); test: flow cytometry (FACS) on human T cells, Experiment 3
T5 construct: whole, on cells
T5 sequence (P07766 23-207, one chain of several): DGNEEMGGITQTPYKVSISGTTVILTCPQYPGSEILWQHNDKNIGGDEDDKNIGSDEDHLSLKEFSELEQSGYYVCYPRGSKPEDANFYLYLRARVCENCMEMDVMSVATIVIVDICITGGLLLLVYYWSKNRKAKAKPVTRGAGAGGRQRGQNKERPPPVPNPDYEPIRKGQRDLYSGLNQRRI

[7] = molecular target: T3, human BCMA on NCI-H929 cells (ATCC, …); test: cell-based or functional assay; remark: listed apart in the source
[8] = molecular target: T4, cynomolgus monkey BCMA (ACRO …); test: BLI (Octet Red96e), cyBCMA.Fc on SA sensor, 1:1 global fitting
[9] = molecular target: T5, human CD3 (TCR/CD3 complex) on human T …; test: flow cytometry (FACS) on human T cells, Experiment 1
[10] = molecular target: T6, human PD-L1-His protein (ACRO Biosystems, #PD1-H5229) (human, UniProt Q9NZQ7 19-238); test: ELISA, coated hPD-L1-His
T6 construct: extracellular domain; bought; also called hPDL1-His; human PD-L1 extracellular domain recombinant protein
T6 sequence (Q9NZQ7 19-238): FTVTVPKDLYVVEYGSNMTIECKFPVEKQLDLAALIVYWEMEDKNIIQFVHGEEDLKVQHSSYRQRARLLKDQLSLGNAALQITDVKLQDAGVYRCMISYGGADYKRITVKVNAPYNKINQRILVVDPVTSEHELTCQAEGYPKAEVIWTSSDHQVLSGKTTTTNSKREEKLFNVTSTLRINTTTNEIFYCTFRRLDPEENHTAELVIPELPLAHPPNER

[11] = molecular target: T7, human CTLA4-His protein (ACRO Biosystems, #CT4-H5229) (human, UniProt P16410 36-161); test: ELISA, coated hCTLA4-His
T7 construct: extracellular domain; bought; also called hCTLA4-His; human CTLA4 extracellular domain recombinant protein
T7 sequence (P16410 36-161): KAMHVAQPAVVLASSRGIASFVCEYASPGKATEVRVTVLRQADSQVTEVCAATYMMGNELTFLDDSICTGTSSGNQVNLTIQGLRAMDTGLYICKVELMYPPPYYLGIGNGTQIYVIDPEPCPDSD

[12] = molecular target: T8, human CTLA4 on cells (CHO-K1/hCTLA4; HEK293/hCTLA4; 293F-hCTLA4) (human, UniProt P16410 36-223); test: FACS, CHO-K1/hCTLA4 cells (Test 1)
T8 construct: whole, on cells
T8 sequence (P16410 36-223): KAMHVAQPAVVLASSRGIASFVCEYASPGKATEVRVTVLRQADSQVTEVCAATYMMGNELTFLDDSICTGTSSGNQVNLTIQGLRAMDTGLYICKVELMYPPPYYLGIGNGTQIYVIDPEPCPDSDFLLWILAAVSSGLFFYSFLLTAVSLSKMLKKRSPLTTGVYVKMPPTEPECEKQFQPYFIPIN

[13] = molecular target: T8, human CTLA4 on cells (CHO-K1/hCTLA4; …); test: cell-based or functional assay
[14] = molecular target: T8, human CTLA4 on cells (CHO-K1/hCTLA4; …); test: competition FACS: biotinylated B7-1-Fc to CHO-K1/hCTLA4 cells (Test 1)
[15] = molecular target: T9, human PD-L1 on cells (CHO-K1/hPDL1; MDA-MB-231) (human, UniProt Q9NZQ7 19-290); test: FACS, CHO-K1/hPDL1 cells (Experiment 1)
T9 construct: whole, on cells
T9 sequence (Q9NZQ7 19-290): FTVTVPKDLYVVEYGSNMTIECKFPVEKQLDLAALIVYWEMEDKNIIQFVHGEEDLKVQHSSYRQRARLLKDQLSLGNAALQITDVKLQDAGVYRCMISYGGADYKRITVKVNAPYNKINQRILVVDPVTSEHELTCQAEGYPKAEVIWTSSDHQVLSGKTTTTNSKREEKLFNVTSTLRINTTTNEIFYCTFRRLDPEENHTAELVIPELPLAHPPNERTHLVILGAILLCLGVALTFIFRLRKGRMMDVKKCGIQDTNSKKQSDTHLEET

[16] = molecular target: T9, human PD-L1 on cells (CHO-K1/hPDL1; …); test: competition FACS: biotinylated PD-1 to CHO-K1/hPDL1 cells (Experiment 1)
[17] = molecular target: T10, biotinylated human CTLA4-Fc protein (ACRO Biosystems, #CT4-H82F3) (human, UniProt P16410 36-161, biotinylated); test: competition ELISA: biotinylated hCTLA4-Fc to coated B7-1-Fc
T10 construct: bought; also called human CTLA4 protein
T10 sequence (P16410 36-161 limits assumed): as the sequence (P16410 36-161) above

human BCMA [18] = molecular target: T11, human BCMA (human, UniProt Q02223 1-184); test: flow cytometry, NCI-H929 cells
T11 construct: whole, on cells; the cell line is named under assay; also called TNFRSF17; CD269
T11 sequence (looked up): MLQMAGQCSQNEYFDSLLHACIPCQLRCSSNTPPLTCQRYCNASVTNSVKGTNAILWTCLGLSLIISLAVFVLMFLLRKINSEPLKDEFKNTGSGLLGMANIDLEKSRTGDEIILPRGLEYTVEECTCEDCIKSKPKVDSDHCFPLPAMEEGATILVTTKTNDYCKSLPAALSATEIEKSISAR

[19] = molecular target: T12, biotinylated human BCMA-Fc, Avitag recombinant protein (ACRO Biosystems, #BC7-H82F0) (human, UniProt Q02223 1-54, biotinylated); test: BLI (Octet Red96e), biotinylated BCMA-Fc on SA sensor, antibody in solution, 1:1 global fit
T12 construct: extracellular domain; Bought protein; also called human BCMA protein; recombinant human BCMA-ECD-Fc; not shown: Fc of the bought fusion protein; Avitag
T12 sequence (looked up): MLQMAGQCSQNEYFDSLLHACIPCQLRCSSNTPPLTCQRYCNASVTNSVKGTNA

human BCMA [20] = molecular target: T11, human BCMA; test: flow cytometry, HEK293T/hBCMA cells
cynomolgus monkey BCMA = molecular target: T13, cynomolgus monkey BCMA (cynomolgus monkey); test: flow cytometry, HEK293T/cyno BCMA cells
T13 construct: whole, on cells; also called cyno BCMA; HEK293T/cyno BCMA cells

T1 sequence (Q95LI5 22-198, one chain of several): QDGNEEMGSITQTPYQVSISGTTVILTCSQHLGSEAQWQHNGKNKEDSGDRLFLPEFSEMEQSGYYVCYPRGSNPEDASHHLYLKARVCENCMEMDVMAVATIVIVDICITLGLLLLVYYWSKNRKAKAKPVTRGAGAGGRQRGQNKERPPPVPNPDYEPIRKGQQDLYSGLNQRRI

B1: PR001990 (bispecific antibody, human IgG1, lambda, L234A L235A)
light: QAVVTQEPSLTVSPGGTVTLTCRSSTGAVTTSNYANWVQQKPGQAPRGLIGGTNKRAPWTPARFSGSLLGDKAALTLLGAQPEDEAEYFCALWYSNLWVFGGGTKLTVLGQPKAAPSVTLFPPSSEELQANKATLVCLISDFYPGAVTVAWKADSSPVKAGVETTTPSKQSNNKYAASSYLSLTPEQWKSHRSYSCQVTHEGSTVEKTVAPTECS
heavy: EVQLLESGGGLVQPGGSLRLSCAASGFTFNTYAMNWVRQAPGKGLEWVSRIRSKYNNYATYYADSVKDRFTISRDDSKSTLYLQMNSLRAEDTAVYYCVRHGNFGNSYVSWFAYWGQGTLVTVSSASTKGPSVFPLAPSSKSTSGGTAALGCLVKDYFPEPVTVSWNSGALTSGVHTFPAVLQSSGLYSLSSVVTVPSSSLGTQTYICNVNHKPSNTKVDKKVEPKSCDKTHTCPPCPAPEAAGGPSVFLFPPKPKDTLMISRTPEVTCVVVDVSHEDPEVKFNWYVDGVEVHNAKTKPREEQYNSTYRVVSVLTVLHQDWLNGKEYKCKVSNKALGAPIEKTISKAKGQPREPQVYTLPPCREEMTKNQVSLWCLVKGFYPSDIAVEWESNGQPENNYKTTPPVLDSDGSFFLYSKLTVDKSRWQQGNVFSCSVMHEALHNHYTQKSLSLSPGK
chain: EVQLVETGGGLIQPGGSLRLSCAASGFTVSDNYMTWVRQAPGKGLEWVSVIFSGGNTYYADSVKGRFTISRDNAKNTLYLQMNSLRAEDTALYYCARRNYDDTRGTDVFDIWGQGTMVTVSSASEPKSSDKTHTCPPCPAPEAAGGPSVFLFPPKPKDTLMISRTPEVTCVVVDVSHEDPEVKFNWYVDGVEVHNAKTKPREEQYNSTYRVVSVLTVLHQDWLNGKEYKCKVSNKALGAPIEKTISKAKGQPREPQVCTLPPSREEMTKNQVSLSCAVKGFYPSDIAVEWESNGQPENNYKTTPPVLDSDGSFFLVSKLTVDKSRWQQGNVFSCSVMHEALHNHYTQKSLSLSPGK
- Maximum MFI [1]: 15600 MFI
- Kd [2]: 1.95 nM
- koff [2]: 0.000629 s⁻¹
- kon [2]: 322000 M⁻¹ s⁻¹
- IFN-γ release, EC50 [3]: 1.36 nM
- IFN-γ release, Maximum [3]: 1230 pg/mL
- IL-2 release, EC50 [3]: 5.29 nM
- IL-2 release, Maximum [3]: 185 pg/mL
- IL-6 release, EC50 [3]: 8.2 nM
- IL-6 release, Maximum [3]: 273 pg/mL
- IL-10 release, EC50 [3]: 1.96 nM
- IL-10 release, Maximum [3]: 777 pg/mL
- NCI-H929 killing, EC50 [3]: 0.59 nM
- NCI-H929 killing, Maximum killing rate % [3]: 61.4%
- TNF-α release, EC50 [3]: 5.49 nM
- TNF-α release, Maximum [3]: 1200 pg/mL
- KD ratio (cy BCMA/hu BCMA) [4]: 1.72
- Killing EC50 (nM), T cell + NCI-H929, + 10 ng/mL sAPRIL [5]: 0.0879 nM
- Killing EC50 (nM), T cell + NCI-H929, + 10 ng/mL sBAFF [5]: 0.0787 nM
- Killing EC50 (nM), T cell + NCI-H929, + 100 ng/mL sAPRIL [5]: 0.154 nM
- Killing EC50 (nM), T cell + NCI-H929, + 100 ng/mL sBAFF [5]: 0.094 nM
- Killing EC50 (nM), T cell + NCI-H929, no soluble ligand [5]: 0.0733 nM
- Maximum MFI [6]: 350000 MFI
- Killing EC50 (nM), T cell + NCI-H929, + 62.5 ng/ml sBCMA [7]: 0.176 nM
- Killing EC50 (nM), T cell + NCI-H929, + 125 ng/mL sBCMA [7]: 0.234 nM
- Killing EC50 (nM), T cell + NCI-H929, + 250 ng/mL sBCMA [7]: 0.387 nM
- Killing EC50 (nM), T cell + NCI-H929, + 500 ng/mL sBCMA [7]: 0.546 nM
- Killing EC50 (nM), T cell + NCI-H929, no sBCMA [7]: 0.0787 nM
- Kd [8]: 3.35 nM
- koff [8]: 0.0025 s⁻¹
- kon [8]: 746000 M⁻¹ s⁻¹
- Maximum MFI [9]: 5450 MFI

B2: PR000300 (bispecific antibody, human IgG1, kappa)
light: DIQMTQSPSTLSASVGDRVTVTCRASQSIYIWLAWYQQKPGKAPNLLIYKASSLETGVPSRFSGSGSGTEFTLTISSLQPDDFATYYCQQYYGSSRTFGQGTKVEIKRTVAAPSVFIFPPSDEQLKSGTASVVCLLNNFYPREAKVQWKVDNALQSGNSQESVTEQDSKDSTYSLSSTLTLSKADYEKHKVYACEVTHQGLSSPVTKSFNRGEC
chain: not shown
notes: PR000070 + VH of PR000184
- EC50 [10]: 0.108 nM
- Maximum OD450 [10]: 3.52 OD450
- EC50 [11]: 0.567 nM
- Maximum OD450 [11]: 2.95 OD450
- EC50 [12]: 2.91 nM
- Maximum MFI [12]: 2620 MFI
- ADCC killing of 293F-hCTLA4 cells, EC50 [13]: 0.008 nM
- ADCC killing of 293F-hCTLA4 cells, Maximum killing rate (%) [13]: 23.8%
- IC50 [14]: 6.42 nM
- Maximum inhibition rate (%) [14]: 101%
- EC50 [15]: 0.884 nM
- Maximum MFI [15]: 21000 MFI
- IC50 [16]: 0.677 nM
- Maximum inhibition rate (%) [16]: 96.6%
- IC50 [17]: 2.09 nM
- Maximum inhibition rate (%) [17]: 98.2%

B3: PR001035, anti-BCMA HCAb antibody, clone 1005P36F3 (antibody, human IgG1, V domains shown)
VH: EVQLVETGGGLIQPGGSLRLSCAASGFTVSSNYMTWVRQAPGKGLEWVSVIFSGGSTYYADSVKGRFTISRDNSKNTLYLQMNSLRAEDTAVYYCARRIAVAGHDVFDIWGQGTMVTVSS
notes: Heavy-chain-only antibody (HCAb), human IgG1 Fc, no light chain
- EC50 (human BCMA [18]): 1.19 nM
- Maximum MFI (human BCMA [18]): 113000
- Kd [19]: 0.276 nM
- koff [19]: 8.98e-05 s⁻¹
- kon [19]: 325000 M⁻¹ s⁻¹
- EC50 (human BCMA [20]): 0.336 nM
- Maximum MFI (human BCMA [20]): 39800
- Maximum MFI (cynomolgus monkey BCMA): 10800

B4: PR000301 (bispecific antibody, human IgG1, kappa)
chain: EVQLVESGGGLIQPGGSLRLSCAVSGFTVSKNYMSWVRQAPGKGLEWVSVVYSGGSKTYADSVKGRFTISRDNSKNTLYLQMNSLRAEDTAVYYCARAVPHSPSSFDIWGQGTMVTVSSKLEPKSSDKTHTPPPPPRTDIQMTQSPSTLSASVGDRVTVTCRASQSIYIWLAWYQQKPGKAPNLLIYKASSLETGVPSRFSGSGSGTEFTLTISSLQPDDFATYYCQQYYGSSRTFGQGTKVEIKRTVAAPSVFIFPPSDEQLKSGTASVVCLLNNFYPREAKVQWKVDNALQSGNSQESVTEQDSKDSTYSLSSTLTLSKADYEKHKVYACEVTHQGLSSPVTKSFNRGEC
heavy: not shown
- EC50 [10]: 0.131 nM
- Maximum OD450 [10]: 3.53 OD450
- EC50 [11]: 0.35 nM
- Maximum OD450 [11]: 2.92 OD450
- EC50 [12]: 1.94 nM
- Maximum MFI [12]: 2360 MFI
- ADCC killing of 293F-hCTLA4 cells, EC50 [13]: 0.031 nM
- ADCC killing of 293F-hCTLA4 cells, Maximum killing rate (%) [13]: 36.6%
- IC50 [14]: 3.21 nM
- Maximum inhibition rate (%) [14]: 99.9%
- EC50 [15]: 0.918 nM
- Maximum MFI [15]: 16600 MFI
- IC50 [16]: 0.882 nM
- Maximum inhibition rate (%) [16]: 96.2%
- IC50 [17]: 2.51 nM
- Maximum inhibition rate (%) [17]: 98.3%
